Measurements from article PMC4014428, “Enhanced Interaction between Pseudokinase and Kinase Domains in Gcn2 stimulates eIF2α Phosphorylation in Starved Cells” (PLoS Genetics, 2014).
Where a chain is given by its changes, count along the chain named. Names may count otherwise.

B1: Gcn2 YKD fragment (230–604) L527I (domain or fragment, S. cerevisiae, UniProt P15442 230-604, looked up)
chain: MFKFKAVVNPKPIKLTSDIFSFSKQFLVKPYIPPESPLADFLMSSEMMENFYYLLSEIELDNSYFNTSNGKKEIANLEKELETVLKAKHDNVNRLFGYTVERMGRNNATFVWKIRLLTEYCNYYPLGDLIQSVGFVNLATARIWMIRLLEGLEAIHKLGIVHKCINLETVILVKDADFGSTIPKLVHSTYGYTVLNMLSRYPNKNGSSVELSPSTWIAPELLKFNNAKPQRLTDIWQLGVLFIQIISGSDIVMNFETPQEFLDSTSMDETLYDLLSKMLNNDPKKRLGTLELLPMKFIRTNIDSTINRFNLVSESVNSNSLELTPGDTITVRGNGGRTLSQSSIRRRSFNVGSRFSSINPATRSRYASDFEEIAV
modifications: [35S]-methionine-labeled
notes: Gcn2 YKD segment, S. cerevisiae, residues 230-604; also called L527I YKD fragment; source: in vitro translated (TNT T7 Coupled Reticulocyte Lysate System), partially purified by ammonium sulfate precipitation
B2: Gcn2 YKD fragment (230–604) R528A (domain or fragment, S. cerevisiae, UniProt P15442 230-604, looked up)
chain: B1 chain with I298L, R299A
modifications: [35S]-methionine-labeled
notes: Gcn2 YKD segment, S. cerevisiae, residues 230-604; also called R528A YKD fragment; source: in vitro translated (TNT T7 Coupled Reticulocyte Lysate System), partially purified by ammonium sulfate precipitation
B3: Gcn2 YKD fragment (230–604) T518A/L527I (domain or fragment, S. cerevisiae, UniProt P15442 230-604, looked up)
chain: B1 chain with T289A
modifications: [35S]-methionine-labeled
notes: Gcn2 YKD segment, S. cerevisiae, residues 230-604; also called T518A/L527I YKD fragment; source: in vitro translated (TNT T7 Coupled Reticulocyte Lysate System), partially purified by ammonium sulfate precipitation
B4: Gcn2-ΔYKD (enzyme, S. cerevisiae, UniProt P15442 1-1659, looked up)
chain: MSLSHLTLDQYYEIQCNELEAIRSIYMDDFTDLTKRKSSWDKQPQIIFEITLRSVDKEPVESSITLHFAMTPMYPYTAPEIEFKNVQNVMDSQLQMLKSEFKKIHNTSRGQEIIFEITSFTQEKLDEFQNVVNTQSLEDDRLQRIKETKEQLEKEEREKQQETIKKRSDEQRRIDEIVQRELEKRQDDDDDLLFNRTTQLDLQPPSEWVASGEAIVFSKTIKAKLPNNSMFKFKAVVNPKPIKLTSDIFSFSKQFLVKPYIPPESPLADFLMSSEMMENFYYLLSEIELDNSYFNTSNGKKEIANLEKELETVLKAKHDNVNRNLVSESVNSNSLELTPGDTITVRGNGGRTLSQSSIRRRSFNVGSRFSSINPATRSRYASDFEEIAVLGQGAFGQVVKARNALDSRYYAIKKIRHTEEKLSTILSEVMLLASLNHQYVVRYYAAWLEEDSMDENVFESTDEESDLSESSSDFEENDLLDQSSIFKNRTNHDLDNSNWDFISGSGYPDIVFENSSRDDENEDLDHDTSSTSSSESQDDTDKESKSIQNVPRRRNFVKPMTAVKKKSTLFIQMEYCENRTLYDLIHSENLNQQRDEYWRLFRQILEALSYIHSQGIIHRDLKPMNIFIDESRNVKIGDFGLAKNVHRSLDILKLDSQNLPGSSDNLTSAIGTAMYVATEVLDGTGHYNEKIDMYSLGIIFFEMIYPFSTGMERVNILKKLRSVSIEFPPDFDDNKMKVEKKIIRLLIDHDPNKRPGARTLLNSGWLPVKHQDEVIKEALKSLSNPSSPWQQQVRESLFNQSYSLTNDILFDNSVPTSTPFANILRSQMTEEVVKIFRKHGGIENNAPPRIFPKAPIYGTQNVYEVLDKGGTVLQLQYDLTYPMARYLSKNPSLISKQYRMQHVYRPPDHSRSSLEPRKFGEIDFDIISKSSSESGFYDAESLKIIDEILTVFPVFEKTNTFFILNHADILESVFNFTNIDKAQRPLVSRMLSQVGFARSFKEVKNELKAQLNISSTALNDLELFDFRLDFEAAKKRLYKLMIDSPHLKKIEDSLSHISKVLSYLKPLEVARNVVISPLSNYNSAFYKGGIMFHAVYDDGSSRNMIAAGGRYDTLISFFARPSGKKSSNTRKAVGFNLAWETIFGIAQNYFKLASGNRIKKRNRFLKDTAVDWKPSRCDVLISSFSNSLLDTIGVTILNTLWKQNIKADMLRDCSSVDDVVTGAQQDGIDWILLIKQQAYPLTNHKRKYKPLKIKKLSTNVDIDLDLDEFLTLYQQETGNKSLINDSLTLGDKADEFKRWDENSSAGSSQEGDIDDVVAGSTNNQKVIYVPNMATRSKKANKREKWVYEDAARNSSNMILHNLSNAPIITVDALRDETLEIISITSLAQKEEWLRKVFGSGNNSTPRSFATSIYNNLSKEAHKGNRWAILYCHKTGKSSVIDLQR
notes: Gcn2, S. cerevisiae, otherwise full length, lacking the pseudokinase domain (YKD); also called gcn2-Δ324-538; source: yeast gcn2Δ strain HQY132, high-copy plasmid (p630 backbone), in whole cell extract

How the values were obtained:
[1] = molecular target: T1, HA epitope-tagged LexA fusion to a Gcn2 KD segment (residues 720–999) (S. cerevisiae, UniProt P15442 720-999); test: co-IP; [35S]methionine-labelled in vitro translated YKD fragments incubated with 50 µg WCE of gcn2Δ yeast HQY132 expressing LexA-HA-KD(720–999); anti-HA agarose, 4°C 2 h, breaking buffer (50 mM Tris/HCl pH 7.5, 50 mM NaCl, 0.1% Triton, 1 mM DTT); SDS-PAGE and fluorography; pellet:input ratios normalised to WT YKD; conditions: partners not purified
T1 construct: the plasmid is PGAL-LexA-HA-GCN2 (720–999); also called HA-LexA-KD; LexA-HA-KD; source: yeast gcn2Δ strain HQY132, high-copy-number plasmid, in whole cell extract; not shown: LexA, N-terminal, kept; HA, N-terminal, kept

[2] = molecular target: T1, HA epitope-tagged LexA fusion to a Gcn2 …; test: co-IP; WCEs (50 µg protein) of gcn2Δ yeast HQY132 co-expressing LexA-HA-KD(720–999) and Gcn2 (WT or mutant) immunoprecipitated with anti-HA antibodies; blots with anti-Gcn2 and anti-LexA; pellet:input ratios of Gcn2 normalised to LexA-HA-KD in the pellet, three experiments; conditions: partners not purified

Row | Binder | level co-immunoprecipitated relative to WT YKD [1] | proportion co-immunoprecipitated relative to WT Gcn2 [2]
1 | B1 | ~4 fold of WT | –
2 | B2 | 60 % of WT | –
3 | B3 | ~4 fold of WT | –
4 | B4 | – | ~0.33 fraction of WT
